# Results as given in patent US20200095278A1 (USTAV ORGANICKE CHEMIE A BIOCHEMIE AV CR V V I, published 2020).
# No end group written: not given here.
# T1: E. coli rhomboid protease GlpG (E. coli, UniProt P09391 1-276, limits assumed)
# T1 sequence (looked up): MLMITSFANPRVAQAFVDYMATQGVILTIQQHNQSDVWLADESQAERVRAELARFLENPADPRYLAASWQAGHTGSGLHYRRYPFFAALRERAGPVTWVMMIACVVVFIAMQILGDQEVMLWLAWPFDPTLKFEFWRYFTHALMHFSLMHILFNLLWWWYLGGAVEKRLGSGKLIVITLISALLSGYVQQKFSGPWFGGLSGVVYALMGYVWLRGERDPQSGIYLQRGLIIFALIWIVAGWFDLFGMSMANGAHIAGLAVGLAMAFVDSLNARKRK
# B1: Compound 9 (peptide)
# peptide: Ac-RVRHA
# modifications: also: C-terminal Ala as alpha-ketoamide, -CO-CO-NH-(CH2)2-Ph
# notes: Structure is printed only as a drawing; Tail inferred from monoisotopic mass 810.461290, MW 810.96, and the NMR; It has the same mass as compound 5; also called Cpd No. 9
# B2: Compound 10 (peptide)
# peptide: Ac-RVRHA
# modifications: also: C-terminal Ala as alpha-ketoamide, -CO-CO-NH-CH2-(2,5-dimethylphenyl)
# notes: Structure is printed only as a drawing; Tail inferred from C38H60N14O7, MW 824.99; also called Cpd No. 10
# B3: Compound 2 (peptide)
# peptide: Ac-RVRHA-{keto‑C(:O)NH-isopropyl}
# B4: Compound 13 (peptide)
# peptide: Ac-Arg-His-Ala
# modifications: not fully specified (C-terminus)
# B5: Compound 8 (peptide)
# peptide: Ac-RVRHA-{keto‑C(:O)NH-pentyl}
# B6: Compound 14 (peptide)
# peptide: Ac-His-Ala
# modifications: not fully specified (C-terminus)
# B7: Compound 5 (peptide)
# peptide: Ac-RVRHA-{keto‑C(:O)NH-1‑phenylethyl}
# B8: Compound 4 (peptide)
# peptide: Ac-RVRHA-{keto‑C(:O)NH-benzyl}
# B9: Compound 1 (peptide)
# peptide: Ac-RVRHA-{keto‑C(:O)NH2}
# B10: Compound 3 (peptide)
# peptide: Ac-RVRHA
# modifications: not fully specified (C-terminus)
# B11: Compound 16 (peptide)
# peptide: Ac-RVWHA-{keto‑C(:O)NH-4‑phenylbutyl}
# B12: Compound 11 (peptide)
# peptide: Ac-RVRHA
# modifications: also: C-terminal Ala as alpha-ketoamide, -CO-CO-NH-(CH2)4-Ph
# notes: Structure is printed only as a drawing; Tail inferred from C39H62N14O7, MW 839.02; also called Cpd No. 11
# B13: Compound 6 (peptide)
# peptide: Ac-RVRHA-{keto‑C(:O)NH-ethoxycarbonylmethyl}
# B14: Compound 7 (peptide)
# peptide: Ac-RVRHA-{keto‑C(:O)NH-neopentyl}
# Biological target: T1, E. coli rhomboid protease GlpG
# Experiment: cell-based or functional assay
row,Binder,"IC50 (µM), measured in vitro as described (Ticha et al., 2017)"
1,B1,0.34 µM
2,B2,0.18 µM
3,B3,12.4 µM
4,B4,9.05 µM
5,B5,1.08 µM
6,B6,48 µM
7,B7,13.8 µM
8,B8,7.64 µM
9,B9,203 µM
10,B10,5.01 µM
11,B11,0.77 µM
12,B12,0.15 µM
13,B13,4.24 µM
14,B14,2.15 µM

# Biological target: T1, E. coli rhomboid protease GlpG
# Experiment: in vitro inhibition of rhomboid protease GlpG, as described (Ticha et al., 2017); printed as a Ki range
row,Binder,Ki
1,B1,10 to 100 nM
2,B2,10 to 100 nM
3,B12,10 to 100 nM
